{"source": "patent US20090149343", "proteins": {"B1": {"name": "recombinant human histone methyl-transferase SET 7/9 (protein)", "chain": "MDSDDEMVEEAVEGHLDDDGLPHGFCTVTYSSTDRFEGNFVHGEKNGRGKFFFFDGSTLEGYYVDDALQGQGVYTYEDGGVLQGTYVDGELNGPAQEYDTDGRLIFKGQYKDNIRHGVCWIYYPDGGSLVGEVNEDGEMTGEKIAYVYPDERTALYGKFIDGEMIEGKLATLMSTEEGRPHFELMPGNSVYHFDKSTSSCISTNALLPDPYESERVYVAESLISSAGEGLFSKVAVGPNTVMSFYNGVRITHQEVDSRDWALNGNTLSLDEETVIDVPEPYNHVSKYCASLGHKANHSFTPNCIYDMFVHPRFGPIKCIRTLRAVEADEELTVAYGYDHSPPGKSGPEAPEWYQVELKAFQATQQK"}}, "target": "48 discrete histone H3 peptides containing a wide range of histone modifications at defined residues (micro-array bound)"}
{"protein": "B1", "values": [{"measurement": "SET 7/9 dependent methylation of micro-array bound histone peptides, detected by anti-H3K4me1 antibody", "value": "also detects a large number of newly created additional sites containing this epitope after HMTase incubation"}]}
